Reference: patent US11667697

Key:
[1] = target: CPXV ortholog of H3 (cowpox virus); assay: lysate ELISA
[2] = target: MPXV ortholog of H3 (monkeypox virus); assay: lysate ELISA
[3] = target: CPXV ortholog of H3 (cowpox virus); assay: cell-based or functional assay
[4] = target: MPXV ortholog of H3 (monkeypox virus); assay: cell-based or functional assay
[5] = target: CPXV ortholog of L1 (cowpox virus); assay: lysate ELISA
[6] = target: VARV ortholog of L1 (variola virus); assay: purified antigen ELISA
[7] = target: CPXV ortholog of L1 (cowpox virus); assay: cell-based or functional assay
[8] = target: MPXV ortholog of L1 (monkeypox virus); assay: cell-based or functional assay
[9] = target: CPXV ortholog of A27 (cowpox virus); assay: lysate ELISA
[10] = target: MPXV ortholog of the A27 VACV protein (monkeypox virus); assay: lysate ELISA
[11] = target: MPXV ortholog of the A27 VACV protein (monkeypox virus); assay: purified antigen ELISA
[12] = target: VARV ortholog of A27 (variola virus); assay: purified antigen ELISA
[13] = target: MPXV ortholog of the A27 VACV protein (monkeypox virus); assay: cell-based or functional assay
[14] = target: CPXV ortholog of D8 (cowpox virus); assay: lysate ELISA
[15] = target: MPXV ortholog of D8 (monkeypox virus); assay: lysate ELISA
[16] = target: CPXV ortholog of D8 (cowpox virus); assay: cell-based or functional assay
[17] = target: MPXV ortholog of A33 (monkeypox virus); assay: lysate ELISA
[18] = target: MPXV ortholog of A33 (monkeypox virus); assay: cell-based or functional assay

B1: VACV-314 (antibody, V domains shown)
VH: QVQLVQSGPGLVKPSETLSLTCTVSGGSISSYYWSWIRQPPGKGLEYIGHIYYSGGTKYNPSLRSRVTISVDTSKNQFSLKLTSVTAADTAVYYCARLAGRKPDADSWGQGTLVTVSS
VL: QPVLTQEPSLTVSPGGTVTLTCASSTGAVTSGFFPNWLQQKPGQAPRALIYSTNNKHSWTPARFSGSLLGGKAALTLSGVQPEDEAEYYCLLYYGGVVVFGGGTKLTVL
[1]
  EC50: 0.004 µg/mL
[2]
  EC50: 0.003 µg/mL
[3]
  PRNT Emax, CPXV MV+C': 85%
  PRNT IC50, CPXV MV+C': 0.7 µg/mL
[4]
  PRNT Emax, MPXV MV+C': 84%
  PRNT IC50, MPXV MV+C': 0.8 µg/mL

B2: VACV-315 (antibody, V domains shown)
VH: EVQLLESGGGLVQPGGSLKLSCAASGFIFSNYAMGWVRQAPGKGLEWVSALSASDGVTSYADSVKGRFTISRDNSKNTMYLQMNRLRTEDTAIYFCAKGRARVNNIYRYFDHWGQGTLVTVSS
VL: QSVLTQPASVSGSPGQSITISCTGTSSDVGAYTFVSWYQHHPGKAPKLIIYEVSNRPSGVSDRFSGSKSGNTASLTISGLQAEDEADYYCNSYTTTSPWVFGGGTQLTVL
[1]
  EC50: 0.002 µg/mL
[2]
  EC50: 0.001 µg/mL
[3]
  PRNT Emax, CPXV MV+C': 70%
  PRNT IC50, CPXV MV+C': 2.8 µg/mL

B3: MPXV-79 (antibody, V domains shown)
VH: QVQLVQSGAEVKKPGASVKVSCKASGYSFRSNGISWVRQAPGQGFEWLGWIAAYNGDTKYVQKFQGRLTMTTDTSTDTAYMELWSLRSDDTAVYYCARDPKLGRKGSAFDIWGQGTLVIVSS
VL: EIVLTQSPATLSLSPGGRATLSCRASQSVGNYLTWYQQKPGQAPRLLIFDGSTRATGIPARFSGSGSGTDFTLTISSLEPEDFAVYYCLQRSDLYTFGQGTKVDIK
[1]
  EC50: 0.004 µg/mL
[2]
  EC50: 0.003 µg/mL
[3]
  PRNT Emax, CPXV MV+C': 81%
  PRNT IC50, CPXV MV+C': 0.2 µg/mL
[4]
  PRNT Emax, MPXV MV: 67%
  PRNT IC50, MPXV MV: 12.5 µg/mL

B4: VACV-33 (antibody, V domains shown)
VH: QLQLQESGPGLVKPSETLSLTCTVSGGSISSGGYYWGWIRQPPGKGLEWIASIYYSGSTYYNPSLKSRVTISVDTSKTQFSLKLSSVTAADTAVYYCARQSSSTGGFHYWGQGTLVTVSS
VL: QSVLTQPPSVSGAPGQRVTISCTGSSSNIGAGYDVHWYQHLPGTAPKLLIYGNSNRPSGVPDRFSGSKSGTSASLAITGLQAEDEANYYCQSYDSSLSGREVFGGGTQLTVL
[5]
  EC50: 0.06 µg/mL
[6]
  EC50: 0.02 µg/mL
[7]
  PRNT Emax, CPXV MV: 74%
  PRNT Emax, CPXV MV+C': 75%
  PRNT IC50, CPXV MV: 0.5 µg/mL
  PRNT IC50, CPXV MV+C': 0.2 µg/mL
[8]
  PRNT Emax, MPXV MV: 50%
  PRNT IC50, MPXV MV: 70 µg/mL

B5: MPXV-26 (antibody, V domains shown)
VH: QVQLVQSGGGLIQPGGSLRLSCVVSGFNVATNYMSWVRQAPGKGLEWVSVIYSGGSTYYADSVKGRFTISRDNSKNTVFLQMNSLRPEDTAAYYCAKGGGLGLDYWGQGTLVTVSS
VL: QSALTQPPSASGSPGQSVTITCTGSSSDVGGYNYVSWYQQHPGKAPKVVIYEVNKRPSGVPHRFSGSKSGNTASLTVSGLQAEDEADYYCSSYAGTETVAFGGGTKLTVL
[5]
  EC50: 0.05 µg/mL
[6]
  EC50: 0.02 µg/mL
[7]
  PRNT Emax, CPXV MV: 99%
  PRNT Emax, CPXV MV+C': 93%
  PRNT IC50, CPXV MV: 0.07 µg/mL
  PRNT IC50, CPXV MV+C': 0.2 µg/mL
[8]
  PRNT Emax, MPXV MV: 96%
  PRNT Emax, MPXV MV+C': 97%
  PRNT IC50, MPXV MV: 3 µg/mL
  PRNT IC50, MPXV MV+C': 6.2 µg/mL

B6: MPXV-83 (antibody, V domains shown)
VH: QVQLVESGGGVVQPGRSLRLSCAASGFTFSSYSMHWVRQAPGKGLEWVAVISFDGRSNYYADSVRGRFTISRDNSKKTMYLQMNSLRLADTAVYYCARGGIGAPDPRNGLEVWGRGAPVTLSS
VL: DIQMIQSPSSLSASVGDRVTISCQATQDISNSVNWYQQKPGKAPKLLIYDASTLETGVPSRFSGGGSGTHFTFTISSLQPEDIATYYCQQFHSLPPTFGQGPKGISK
[5]
  EC50: 0.03 µg/mL
[6]
  EC50: 0.065 µg/mL
[7]
  PRNT Emax, CPXV MV: 69%
  PRNT Emax, CPXV MV+C': 78%
  PRNT IC50, CPXV MV: 0.2 µg/mL
  PRNT IC50, CPXV MV+C': 0.1 µg/mL
[8]
  PRNT Emax, MPXV MV+C': 67%
  PRNT IC50, MPXV MV+C': 12.5 µg/mL

B7: VACV-154 (antibody, V domains shown)
VH: EVQLLESGGGLVQPGESLRLSCAASGFTLRNYAMSWVRQTPGKGLEWVSAISGSGGSTYYADSVKGRFTISRDTSKNTLYVQMNSLRAEDTAVYYCAKIRLDSSGYSGAFDIWGQGTRVTVSS
VL: SYELTQPPSVSVSPGQTARITCSGDALPKQYASWYQQKPGQAPVLVIYKDSERPSGIPERFSGSSSGTTVTLTISGVQAEDEADYYCQSADSSGTYPVVFGGGTQLTVL
[9]
  EC50: 0.02 µg/mL
[10]
  EC50: 0.02 µg/mL
[11]
  EC50: 0.06 µg/mL
[12]
  EC50: 0.3 µg/mL
[13]
  PRNT Emax, MPXV MV: 66%
  PRNT Emax, MPXV MV+C': 69%
  PRNT IC50, MPXV MV: 15 µg/mL
  PRNT IC50, MPXV MV+C': 14 µg/mL

B8: VACV-303 (antibody, V domains shown)
VH: EVQLLESGGGLVQPGGSLRLSCAASGFTFSSYAMSWVRQAPGKGLEWVSAISGTGGNTYYADSVKGRFTISRDKSKNTLYLQMHSLRAEDTAVYYCATSLIWWLQSDYWGQGTLVTVSS
VL: DIQMTQSPSSLSASVGDRVTITCRASQSIASYLIWYQQKPGNAPKLLIYAASSLQSGVPSRFSGSGSGTDFTLTISSLQPEDFATYYCQQSYSTPQTFGQGTKVDIK
[9]
  EC50: 0.004 µg/mL
[10]
  EC50: 0.004 µg/mL
[11]
  EC50: 0.02 µg/mL
[12]
  EC50: 0.16 µg/mL
[13]
  PRNT Emax, MPXV MV: 51%
  PRNT Emax, MPXV MV+C': 64%
  PRNT IC50, MPXV MV: 25 µg/mL
  PRNT IC50, MPXV MV+C': 15 µg/mL

B9: VACV-304 (antibody, V domains shown)
VH: EVQLVESGGGLVQPGGSLRLSCVVSGFTFSNYWMSWVRQAPGKGLEWVANIKQDGSKKYYVDSVTGRFTISRDNAKNSLYLQMNSLRAEDTAVYYCATLNLELAVDAISEALKWGQGTLVTVSS
VL: SYELTQPPSVSVSPGQTARITCSGDALPKQFAYWYQQKPGQAPVVMIYKDSERPSGIPERFSGSSSGTTVTLTISGVQAEDEADYYCQSVDNSGTYEVFGGGTQLTVL
[14]
  EC50: 0.05 µg/mL
[15]
  EC50: 0.1 µg/mL
[16]
  PRNT Emax, CPXV MV+C': 79%
  PRNT IC50, CPXV MV+C': 0.1 µg/mL

B10: MPXV-27 (antibody, V domains shown)
VH: QVQLQQWGAGLLKPSETLSLTCDVYGGSFSGYYWSWIRQPPGKGLEWIGEINHSGSTTYTPSLRSRVTISVDTSKNQFSLKLSSVTAADTAVYYCARVLSGWLPFPNYYYYMDVWGKGTTVT
VL: DIQMTQSPSSLPASVGDRVTITCRASQDIRNNLGWYQQKPGKAPERLIYGTSNLQSGVPSRFSGSGSGTEFTLTISSLQPEDFATYYCLQHNSYPPTFGRGTKVEIK
[14]
  EC50: 0.02 µg/mL
[15]
  EC50: 0.02 µg/mL
[16]
  PRNT Emax, CPXV MV+C': 75%
  PRNT IC50, CPXV MV+C': 0.08 µg/mL

B11: MPXV-39 (antibody, V domains shown)
VH: QVQLQQWGAGLLKPSETLSLTCAIYGGSLSGQYWSWIRQPPGRGLEWIGEIHHKGRTNYNPSLKSRVTISIDTSQRQFSLRLTSVSAADTAVYYCASGNYRLGQGTLVTF
VL: DVVLTQSPLTLPVTLGQPASISCRSSQSLVYSDGDTYLNWFQQRPGQAPRRLIYKVSKRDFGVPDRFSGSGSGTDFTLRISRVEAEDVGVYYCMQGTHWPRTFGQGTQVDIK
[17]
  EC50: > 47 µg/mL
[18]
  PRNT Emax, MPXV EV+C': 56%
  PRNT IC50, MPXV EV+C': 100 µg/mL

B12: VACV-300 (antibody, V domains shown)
V domain 1: QVQLVQSGAEVKKPGSSVKVSCKASGGTFSSYAISWVRQAPGQGLEWMGGIIPIFGTANYAQKFQGRVTITADESTGTAYMELTSLRSEDTAIYYCARASEQWLASINWFDPWGQGTLVTVSS
V domain 2: QSALTQPASVSGSPGQSITISCTGTSSDVGSYNLVSWYQQHPGKAPKLMIYEVSKRPSGVSNRFSASKSGNTASLTISGLQAEDEADYYCCSYAGSSTLVFGGGTQVTVL
[9]
  EC50: 0.06 µg/mL
[10]
  EC50: > 0.68 µg/mL
[11]
  EC50: 0.14 µg/mL
[12]
  EC50: 0.79 µg/mL
